Source: article PMC5490261, “The structural and functional characterization of human RecQ4 reveals insights into its helicase mechanism”
Substitutions are numbered along the chain they refer to.

How the values were obtained:
Assay in all cases: fluorescence polarization; WT-like, low nM apparent Kd; 20 mM HEPES pH 8.0, 10 mM NaCl, 5% glycerol, 1 mM MgCl2, 0.5 mM TCEP, 0.5 nM Cy3-ssDNA; temperature not stated
Settings in all cases: protein: recombinant; tags: Trx-His6 removed by 3C protease; label: 5' Cy3
RecQ4 427-1208 K1048A = biological target: T1, RecQ4 427-1208 K1048A (Homo sapiens, UniProt O94761 427-1208, K1048A)
T1 sequence: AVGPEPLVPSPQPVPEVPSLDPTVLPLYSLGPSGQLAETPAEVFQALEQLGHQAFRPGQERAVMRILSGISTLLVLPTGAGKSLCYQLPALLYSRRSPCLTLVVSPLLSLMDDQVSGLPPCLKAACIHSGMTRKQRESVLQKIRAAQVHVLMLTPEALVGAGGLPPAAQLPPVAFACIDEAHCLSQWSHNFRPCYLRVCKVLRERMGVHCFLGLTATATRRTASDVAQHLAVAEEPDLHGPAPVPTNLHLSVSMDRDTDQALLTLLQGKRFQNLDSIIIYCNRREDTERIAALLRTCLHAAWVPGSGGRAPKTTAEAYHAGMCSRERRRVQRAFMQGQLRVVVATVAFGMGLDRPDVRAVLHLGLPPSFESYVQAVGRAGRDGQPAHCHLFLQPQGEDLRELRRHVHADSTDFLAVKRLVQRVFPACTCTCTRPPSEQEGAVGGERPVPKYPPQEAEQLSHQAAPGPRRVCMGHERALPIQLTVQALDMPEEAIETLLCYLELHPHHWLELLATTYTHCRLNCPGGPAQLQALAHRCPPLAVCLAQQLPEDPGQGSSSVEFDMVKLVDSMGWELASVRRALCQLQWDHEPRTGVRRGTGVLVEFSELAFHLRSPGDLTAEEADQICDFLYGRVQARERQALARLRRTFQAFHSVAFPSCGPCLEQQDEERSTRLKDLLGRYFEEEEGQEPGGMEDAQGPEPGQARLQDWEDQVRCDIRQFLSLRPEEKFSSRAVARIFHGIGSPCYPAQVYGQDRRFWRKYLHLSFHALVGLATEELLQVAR

[1] = biological target: T2, RecQ4 427-1208 del944-1032 (Homo sapiens, UniProt O94761 427-943+=GG+1032-1208, internal_change)
T2 sequence: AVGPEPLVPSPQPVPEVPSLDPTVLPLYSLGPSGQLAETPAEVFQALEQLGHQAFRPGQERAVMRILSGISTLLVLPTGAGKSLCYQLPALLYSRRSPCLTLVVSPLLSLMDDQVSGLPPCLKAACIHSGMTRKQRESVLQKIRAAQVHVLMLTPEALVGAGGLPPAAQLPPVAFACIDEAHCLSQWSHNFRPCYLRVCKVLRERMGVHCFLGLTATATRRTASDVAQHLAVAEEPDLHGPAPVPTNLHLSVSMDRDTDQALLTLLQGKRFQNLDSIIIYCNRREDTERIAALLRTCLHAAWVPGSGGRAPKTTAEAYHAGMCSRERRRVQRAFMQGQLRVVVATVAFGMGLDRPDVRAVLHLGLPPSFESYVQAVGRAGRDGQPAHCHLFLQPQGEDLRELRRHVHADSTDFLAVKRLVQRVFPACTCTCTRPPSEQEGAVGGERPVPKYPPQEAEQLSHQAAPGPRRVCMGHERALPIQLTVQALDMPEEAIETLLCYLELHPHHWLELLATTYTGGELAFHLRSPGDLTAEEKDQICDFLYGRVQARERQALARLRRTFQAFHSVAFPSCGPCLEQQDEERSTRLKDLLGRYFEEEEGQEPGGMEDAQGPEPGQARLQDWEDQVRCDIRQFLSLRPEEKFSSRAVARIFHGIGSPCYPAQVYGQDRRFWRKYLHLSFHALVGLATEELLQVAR

[2] = biological target: T3, RecQ4 427-1208 K843A/R844A/R848A (Homo sapiens, UniProt O94761 427-1208, K843A;R844A;R848A)
T3 sequence: T1 sequence with K417A, R418A, R422A, A622K

Measured: binding result

CCATTCCACCCTCTATTTTTTTTTTTTTTT (ssDNA) [T3-Cy3]
binds: RecQ4 427-1208 K1048A | [1] | [2]
